Data as given in IntAct's records for PubMed 29039417.

B1: BBSome complex member BBS4 (Homo sapiens), Q96RK4 (parent)
chain: MAEERVATRTQFPVSTESQKPRQKKAPEFPILEKQNWLIHLHYIRKDYEACKAVIKEQLQETQGLCEYAIYVQALIFRLEGNIQESLELFQTCAVLSPQSADNLKQVARSLFLLGKHKAAIEVYNEAAKLNQKDWEISHNLGVCYIYLKQFNKAQDQLHNALNLNRHDLTYIMLGKIHLLEGDLDKAIEVYKKAVEFSPENTELLTTLGLLYLQLGIYQKAFEHLGNALTYDPTNYKAILAAGSMMQTHGDFDVALTKYRVVACAVPESPPLWNNIGMCFFGKKKYVAAISCLKRANYLAPFDWKILYNLGLVHLTMQQYASAFHFLSAAINFQPKMGELYMLLAVALTNLEDIENAKRAYAEAVHLDKCNPLVNLNYAVLLYNQGEKKNALAQYQEMEKKVSLLKDNSSLEFDSEMVEMAQKLGAALQVGEALVWTKPVKDPKSKHQTTSTSKPASFQQPLGSNQALGQAMSSAAAYRTLPSGAGGTSQFTKPPSLPLEPEPAVESSPTETSEQIREK
partner: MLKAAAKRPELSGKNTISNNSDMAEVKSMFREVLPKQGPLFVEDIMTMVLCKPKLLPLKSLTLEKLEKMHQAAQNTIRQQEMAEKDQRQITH

Variants of: B1
Settings: with bbip1_human BBIP1, A8MTZ0

Variant	effect of a mutation on the interaction
E363A	with no effect
E363K	with no effect
E363G	disrupting interaction strength
E355K	with no effect
E355A	with no effect
Y341K	with no effect
T349E	with no effect
T349A	with no effect
T349K	with no effect
L343T	disrupting interaction strength
L343R	disrupting interaction strength
L343E	with no effect
L343H	disrupting interaction strength
L343P	disrupting interaction strength
L343A	with no effect
L343K	with no effect
D353E	with no effect
D353K	with no effect
D353A	with no effect
D353G	disrupting interaction strength
A362E	with no effect
A362K	with no effect
Y361E	with no effect

Variant	effect of a mutation on the interaction
Y361K	with no effect
Y361A	with no effect
Y361C	disrupting interaction strength
L348A	with no effect
L348R	disrupting interaction strength
L348E	with no effect
L348K	with no effect
L348P	disrupting interaction strength
L348T	disrupting interaction strength
L367P	disrupting interaction strength
L367K	with no effect
L367E	with no effect
L367A	with no effect
M342V	disrupting interaction strength
M342E	with no effect
M342R	disrupting interaction strength
M342A	with no effect
M342K	disrupting interaction strength
M342W	disrupting interaction strength
M342T	disrupting interaction strength
D368E	with no effect
D368A	with no effect
A347D	disrupting interaction strength

Variant	effect of a mutation on the interaction
A347E	with no effect
A347K	with no effect
L344E	with no effect
L344A	with no effect
L344K	with no effect
V346A	disrupting interaction strength
V346E	disrupting interaction strength
V346K	with no effect
N356A	with no effect
N356E	with no effect
N356K	with no effect
L351K	with no effect
L351E	with no effect
L351A	with no effect
L351P	disrupting interaction strength
A345K	with no effect
A345V	disrupting interaction strength
A345E	with no effect
A345T	disrupting interaction strength
A364T	disrupting interaction strength
A364K	with no effect
A364V	disrupting interaction strength
A364E	with no effect

Variant	effect of a mutation on the interaction
R359E	with no effect
R359K	with no effect
R359A	with no effect
A357K	with no effect
A357E	with no effect
A357V	disrupting interaction strength
V365A	with no effect
V365K	with no effect
V365E	with no effect
E352K	with no effect
E352A	with no effect
K358E	with no effect
K358A	with no effect
N350A	with no effect
N350K	with no effect
N350E	with no effect
N350D	disrupting interaction strength
H366K	with no effect
H366E	with no effect
H366A	with no effect
A360K	with no effect
A360E	with no effect

Continued, values first:

effect of a mutation on the interaction	Variant
with no effect	N371K
with no effect	N371E
with no effect	N371A
with no effect	L381E
with no effect	L381K
disrupting interaction strength	L381P
with no effect	L381A
with no effect	K369E
with no effect	K369A
with no effect	Y383K
with no effect	Y383A
with no effect	Y383E
with no effect	G386K
with no effect	G386A
with no effect	G386E
with no effect	Q385K
with no effect	Q385E
with no effect	Q385A
with no effect	L382E
disrupting interaction strength	L382P
with no effect	L382A
with no effect	L382K
with no effect	D368K
disrupting interaction strength	D368G
with no effect	C370E

effect of a mutation on the interaction	Variant
with no effect	C370A
with no effect	C370K
disrupting interaction strength	A379V
with no effect	A379E
with no effect	A379K
with no effect	N375A
with no effect	N375E
with no effect	N375K
with no effect	L376E
with no effect	L376A
with no effect	L376K
disrupting interaction strength	L376R
disrupting interaction strength	L376P
disrupting interaction strength	E387G
with no effect	E387A
with no effect	E387K
with no effect	K389A
disrupting interaction strength	V380A
with no effect	V380E
with no effect	V380K
with no effect	N384E
with no effect	N384K
with no effect	N384A
disrupting interaction strength	N384Y
with no effect	P372K

effect of a mutation on the interaction	Variant
with no effect	P372E
with no effect	P372A
disrupting interaction strength	P372L
disrupting interaction strength	P372S
with no effect	Y378E
with no effect	Y378K
with no effect	Y378A
disrupting interaction strength	N377C
disrupting interaction strength	N377I
with no effect	N377A
disrupting interaction strength	N377R
with no effect	N377E
with no effect	N377K
disrupting interaction strength	N377D
disrupting interaction strength	N377S
with no effect	V374A
with no effect	V374K
with no effect	V374E
with no effect	K388E
with no effect	K388A
with no effect	L373E
with no effect	L373K
disrupting interaction strength	L373S
with no effect	L373A
